Test results from patent US20260242478A1 (published 2026).

B1: Phage-1068 (peptide)
peptide: YCNGHLPEYMSKCI
notes: Clonal phage supernatant; not shown: fused to the pIII filament protein of the bacteriophage
B2: Phage-1064 (peptide)
peptide: YCEGHSAEYIAKCL
notes: as for B1
B3: Phage-1067 (peptide)
peptide: YCDGHSPEYMQKCL
notes: as for B1
B4: Phage-1070 (peptide)
peptide: YCDGHSLEYMLKCL
notes: as for B1
B5: Phage-1066 (peptide)
peptide: YCDGHDARYMEKCL
notes: as for B1
B6: Phage-1073 (peptide)
peptide: YCDGHAEQYMSKCL
notes: as for B1
B7: Phage-1072 (peptide)
peptide: YCDGHNWEYMEKCL
notes: as for B1
B8: Phage-1074 (peptide)
peptide: YCDGLFQLYMMKCL
notes: as for B1
B9: Phage-1071 (peptide)
peptide: YCEGHHPWYVQKCL
notes: as for B1
B10: Phage-1069 (peptide)
peptide: YCSGHLPEYMDKCL
notes: as for B1
B11: Phage-1065 (peptide)
peptide: YCDGHSPEHMGKCL
notes: as for B1
B12: Phage-1063 (peptide)
peptide: YCDGHLMEYKAKCL
notes: as for B1
B13: Phage-1062 (peptide)
peptide: YCAGHSAEYMSKCL
notes: as for B1

Assays:
[1] = biological target: T1, Anti-CD28 Fab (SEQ ID NOs: 696, 697); assay: phage ELISA; biotinylated anti-CD28 Fab on neutravidin plate, clonal phage supernatant, anti-M13 HRP detection;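 also: crude supernatants of single phage clones picked after panning were screened for binding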
T1 construct: In the phage ELISA the Fab was biotinylated and captured on neutravidin coated plates
T1 sequence (VH, as listed by the source, chain 1 of 2): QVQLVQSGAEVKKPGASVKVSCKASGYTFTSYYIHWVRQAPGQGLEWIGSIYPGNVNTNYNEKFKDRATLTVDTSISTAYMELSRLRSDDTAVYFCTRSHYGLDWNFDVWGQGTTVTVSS
T1 sequence (VL, as listed by the source, chain 2 of 2): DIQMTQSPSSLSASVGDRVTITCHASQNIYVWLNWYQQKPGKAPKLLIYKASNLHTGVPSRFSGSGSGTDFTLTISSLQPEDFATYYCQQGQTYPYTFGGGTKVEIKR

[2] = biological target: T1, Anti-CD28 Fab (SEQ ID NOs: 696, 697); assay: phage ELISA; captured anti-CD28 Fab pre-incubated with CD28 antigen as competitor, anti-M13 HRP detection;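 also: crude clonal phage supernatants screened by ELISA, with wells pre-incubated with CD28 antigen in blocking buffer, compared against wells given blocking buffer alone as control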
Protocol: (§1) After panning, phage infected bacteria were plated out and colonies picked into 96 well blocks. Clonal phage was then amplified and separated from bacterial cells via centrifugation.
(§2) Clonal phage were harvested as crude supematants and screened via standard ELISAs. […] Prior to the addition of clonal phage, wells were incubated with blocking buffer and CD28 antigen or blocking buffer alone. Without washing or aspirating, clonal phage supematants were then added to the wells and incubated for a short time. Wells were then washed followed by detection of bound phage using a horse radish conjugated anti-M13 antibody. Clonal phage of interest were then sent for sequence analysis.

[3] = biological target: T2, Anti-CD28 Fab (SEQ ID NOs: 696, 697); assay: phage ELISA on captured anti-CD28 Fab, wells pre-incubated with CD28 antigen as competitor;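 also: crude clonal phage supernatants added without washing, bound phage read out by HRP-coupled anti-M13 antibody, reference wells given blocking buffer only instead of CD28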
T2 construct: Biotinylated and captured on neutravidin coated plates in the phage ELISA
T2 sequence (VH, as listed by the source, chain 1 of 2): as the sequence (VH, as listed by the source, chain 1 of 2) above
T2 sequence (VL, as listed by the source, chain 2 of 2): as the sequence (VL, as listed by the source, chain 2 of 2) above
Protocol: as §1, §2

[4] = biological target: T2, Anti-CD28 Fab (SEQ ID NOs: 696, 697); assay: phage ELISA, clonal phage on biotinylated anti-CD28 Fab captured on neutravidin plates;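 also: crude clonal phage supernatants added to wells pretreated with CD28 antigen or with blocking buffer only, bound phage detected by HRP-linked anti-M13 antibody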
Protocol: as §1, §2

[5] = biological target: Anti-CD28 Fab (SEQ ID NOs: 696, 697); assay: phage ELISA; biotinylated anti-CD28 Fab on neutravidin plate, clonal phage supernatant, anti-M13 HRP detection;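 also: crude supernatants of single phage clones picked after panning were screened for binding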
Target sequence in this assay (VH, as listed by the source, chain 1 of 2): as the sequence (VH, as listed by the source, chain 1 of 2) above
Target sequence in this assay (VL, as listed by the source, chain 2 of 2): as the sequence (VL, as listed by the source, chain 2 of 2) above

[6] = biological target: Anti-CD28 Fab (SEQ ID NOs: 696, 697); assay: phage ELISA; Fab-coated wells pre-incubated with CD28 antigen as competitor, anti-M13 HRP detection;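 also: crude clonal phage supernatants screened by ELISA, comparing wells pre-treated with CD28 antigen in blocker against wells given blocker only, bound phage read via HRP-linked anti-M13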
Target sequence in this assay (VH, as listed by the source, chain 1 of 2): as the sequence (VH, as listed by the source, chain 1 of 2) above
Target sequence in this assay (VL, as listed by the source, chain 2 of 2): as the sequence (VL, as listed by the source, chain 2 of 2) above
Protocol: as §1, §2

[7] = biological target: T3, Anti-CD28 Fab (SEQ ID NOs: 696, 697); assay: phage ELISA on captured anti-CD28 Fab, wells pre-incubated with CD28 antigen as competitor;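 also: crude clonal phage supernatants added without washing, bound phage read out by HRP-coupled anti-M13 antibody, reference wells given blocking buffer only instead of CD28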
T3 construct: In the phage ELISA the Fab was biotinylated and captured on neutravidin coated plates
T3 sequence (VH, as listed by the source, chain 1 of 2): as the sequence (VH, as listed by the source, chain 1 of 2) above
T3 sequence (VL, as listed by the source, chain 2 of 2): as the sequence (VL, as listed by the source, chain 2 of 2) above
Protocol: as §1, §2

[8] = biological target: T3, Anti-CD28 Fab (SEQ ID NOs: 696, 697); assay: phage ELISA, clonal phage on biotinylated anti-CD28 Fab captured on neutravidin plates;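 also: crude clonal phage supernatants added to wells pretreated with CD28 antigen or with blocking buffer only, bound phage detected by HRP-linked anti-M13 antibody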
Protocol: as §1, §2

| Binder | Anti-CD28 Fab signal (phage binding ELISA) [1] | Anti-CD28 Fab signal in the presence of CD28 (phage binding ELISA) [2] | Anti-CD28 Fab signal (phage binding ELISA) [5] | Anti-CD28 Fab signal in the presence of CD28 (phage binding ELISA) [6] | other results |
| --- | --- | --- | --- | --- | --- |
| B1 | 1.4 | 0.07 |  |  |  |
| YCEGHSEEYMAKCL [Phage-1132] |  |  |  |  | Anti-CD28 Fab signal in the presence of CD28 (phage binding ELISA) [3]: 0.07; Anti-CD28 Fab signal (phage binding ELISA) [4]: 1.26 |
| B2 | 1.41 | 0.09 |  |  |  |
| B3 | 1.4 | 0.53 |  |  |  |
| YCDGHSEAYIEKCL (Tested as clonal phage supernatant) [Phage-1098] |  |  | 1.34 | 0.06 |  |
| B4 | 1.39 | 0.07 |  |  |  |
| YCEGHSPEYMHKCL (Tested as clonal phage supernatant) [Phage-1097] |  |  | 1.34 | 0.09 |  |
| YCDGHLPRYMAKCL (Tested as clonal phage supernatant) [Phage-1092] |  |  | 1.35 | 0.1 |  |
| YCDGHSLEYIDKCM [Phage-1057] |  |  |  |  | Anti-CD28 Fab signal in the presence of CD28 (phage binding ELISA) [7]: 0.09; Anti-CD28 Fab signal (phage binding ELISA) [8]: 1.42 |
| B5 | 1.4 | 0.06 |  |  |  |
| YCEGHTQEYMQKCL [Phage-1138] |  |  |  |  | Anti-CD28 Fab signal in the presence of CD28 (phage binding ELISA) [3]: 0.07; Anti-CD28 Fab signal (phage binding ELISA) [4]: 1.24 |
| B6 | 1.38 | 0.07 |  |  |  |
| YCDGHSSVYMLKCL [Phage-1130] |  |  |  |  | Anti-CD28 Fab signal in the presence of CD28 (phage binding ELISA) [3]: 0.06; Anti-CD28 Fab signal (phage binding ELISA) [4]: 1.26 |
| YCAGHAEEYLEKCL [Phage-1060] |  |  |  |  | Anti-CD28 Fab signal in the presence of CD28 (phage binding ELISA) [7]: 0.15; Anti-CD28 Fab signal (phage binding ELISA) [8]: 1.41 |
| YCDGHMVQYMAKCL (Tested as clonal phage supernatant) [Phage-1089] |  |  | 1.36 | 0.07 |  |
| YCEGHLPMYMTKCL [Phage-1136] |  |  |  |  | Anti-CD28 Fab signal in the presence of CD28 (phage binding ELISA) [3]: 0.06; Anti-CD28 Fab signal (phage binding ELISA) [4]: 1.25 |
| B7 | 1.38 | 0.05 |  |  |  |
| YCDGHLLQYMHKCL (Tested as clonal phage supernatant) [Phage-1094] |  |  | 1.35 | 0.07 |  |
| YCEGHMEKYMEKCL (Tested as clonal phage supernatant) [Phage-1091] |  |  | 1.35 | 0.11 |  |
| B8 | 1.38 | 0.07 |  |  |  |
| YCQGHSPNYITKCF [Phage-1058] |  |  |  |  | Anti-CD28 Fab signal in the presence of CD28 (phage binding ELISA) [7]: 0.06; Anti-CD28 Fab signal (phage binding ELISA) [8]: 1.41 |

| Binder | Anti-CD28 Fab signal (phage binding ELISA) [1] | Anti-CD28 Fab signal in the presence of CD28 (phage binding ELISA) [2] | Anti-CD28 Fab signal (phage binding ELISA) [5] | Anti-CD28 Fab signal in the presence of CD28 (phage binding ELISA) [6] | other results |
| --- | --- | --- | --- | --- | --- |
| YCAGHVDQYLWKCL (Tested as clonal phage supernatant) [Phage-1099] |  |  | 1.34 | 0.06 |  |
| YCDGHSEQYMAKCL [Phage-1137] |  |  |  |  | Anti-CD28 Fab signal in the presence of CD28 (phage binding ELISA) [3]: 0.06; Anti-CD28 Fab signal (phage binding ELISA) [4]: 1.24 |
| YCDGHLPEYMQKCL (Tested as clonal phage supernatant) [Phage-1093] |  |  | 1.35 | 0.08 |  |
| YCEGHMSIYMQKCL [Phage-1133] |  |  |  |  | Anti-CD28 Fab signal in the presence of CD28 (phage binding ELISA) [3]: 0.07; Anti-CD28 Fab signal (phage binding ELISA) [4]: 1.25 |
| YCEGHHRIYMQKCL [Phage-1131] |  |  |  |  | Anti-CD28 Fab signal in the presence of CD28 (phage binding ELISA) [3]: 0.07; Anti-CD28 Fab signal (phage binding ELISA) [4]: 1.26 |
| YCAGHASEYMAKCL (Tested as clonal phage supernatant) [Phage-1100] |  |  | 1.33 | 0.08 |  |
| B9 | 1.39 | 0.07 |  |  |  |
| YCDGHAPLYIQKCL (Tested as clonal phage supernatant) [Phage-1095] |  |  | 1.34 | 0.06 |  |
| YCEGHLQEHMAKCL [Phage-1134] |  |  |  |  | Anti-CD28 Fab signal in the presence of CD28 (phage binding ELISA) [3]: 0.05; Anti-CD28 Fab signal (phage binding ELISA) [4]: 1.25 |
| B10 | 1.39 | 0.07 |  |  |  |
| YCAGLFEEYMSKCL [Phage-1135] |  |  |  |  | Anti-CD28 Fab signal in the presence of CD28 (phage binding ELISA) [3]: 0.06; Anti-CD28 Fab signal (phage binding ELISA) [4]: 1.25 |
| YCDGHAPQYMRKCL (Tested as clonal phage supernatant) [Phage-1101] |  |  | 1.33 | 0.08 |  |
| YCDGHAPEYLGKCL [Phage-1059] |  |  |  |  | Anti-CD28 Fab signal in the presence of CD28 (phage binding ELISA) [7]: 0.06; Anti-CD28 Fab signal (phage binding ELISA) [8]: 1.41 |
| YCDGHSEEFMWKCL (Tested as clonal phage supernatant) [Phage-1090] |  |  | 1.35 | 0.06 |  |
| YCAGHTAEYMAKCL [Phage-1139] |  |  |  |  | Anti-CD28 Fab signal in the presence of CD28 (phage binding ELISA) [3]: 0.08; Anti-CD28 Fab signal (phage binding ELISA) [4]: 1.24 |
| B11 | 1.4 | 0.09 |  |  |  |
| B12 | 1.41 | 0.06 |  |  |  |
| B13 | 1.41 | 0.07 |  |  |  |
| YCDGHSKEYMAKCL (Tested as clonal phage supernatant) [Phage-1096] |  |  | 1.34 | 0.06 |  |
| YCDGHSHEYMQKCL [Phage-1061] |  |  |  |  | Anti-CD28 Fab signal in the presence of CD28 (phage binding ELISA) [7]: 0.06; Anti-CD28 Fab signal (phage binding ELISA) [8]: 1.41 |
